In patent publication US20210388087A1 (Chugai, published 2021):

T1: Human CD3eg linker (human)
T1 construct: Single-chain construct; also called recombinant human CD3
T1 chain: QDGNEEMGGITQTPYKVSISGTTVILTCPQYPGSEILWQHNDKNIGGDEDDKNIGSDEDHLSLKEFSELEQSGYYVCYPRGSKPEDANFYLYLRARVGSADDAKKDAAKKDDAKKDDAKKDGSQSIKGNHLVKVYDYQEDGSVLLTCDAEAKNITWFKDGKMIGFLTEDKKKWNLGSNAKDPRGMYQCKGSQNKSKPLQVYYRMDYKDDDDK


Target: T1, Human CD3eg linker
Experiment: SPR; fold vs parent H183/L072

fold change of affinity | Binder
0.6 fold | H183/L072 VL T97K (antibody, name in Kabat numbering, V domains shown) VH: QVQLVESGGGLVQPGRSLRLSCAASGFTFSNAWMHWVRQAPGKGLEWVAQIKDKGNAYAAYYAPSVKGRFTISRDDSKNSIYLQMNSLKTEDTAVYYCHYVHYASASTVLPAFGVDAWGQGTTVTVSS VL: DIVMTQSPLSLPVTPGEPASISCQASQELVHMNRNTYLHWYQQKPGQAPRLLIYKVSNRFPGVPDRFSGSGSGTDFTLKISRVEAEDVGVYYCAQGTSVPFKFGQGTKLEIK
0.8 fold | H183/L072 VL V27cL (antibody, name in Kabat numbering, V domains shown) VH: QVQLVESGGGLVQPGRSLRLSCAASGFTFSNAWMHWVRQAPGKGLEWVAQIKDKGNAYAAYYAPSVKGRFTISRDDSKNSIYLQMNSLKTEDTAVYYCHYVHYASASTVLPAFGVDAWGQGTTVTVSS VL: DIVMTQSPLSLPVTPGEPASISCQASQELLHMNRNTYLHWYQQKPGQAPRLLIYKVSNRFPGVPDRFSGSGSGTDFTLKISRVEAEDVGVYYCAQGTSVPFTFGQGTKLEIK
0.6 fold | H183/L072 VL T97V (antibody, name in Kabat numbering, V domains shown) VH: QVQLVESGGGLVQPGRSLRLSCAASGFTFSNAWMHWVRQAPGKGLEWVAQIKDKGNAYAAYYAPSVKGRFTISRDDSKNSIYLQMNSLKTEDTAVYYCHYVHYASASTVLPAFGVDAWGQGTTVTVSS VL: DIVMTQSPLSLPVTPGEPASISCQASQELVHMNRNTYLHWYQQKPGQAPRLLIYKVSNRFPGVPDRFSGSGSGTDFTLKISRVEAEDVGVYYCAQGTSVPFVFGQGTKLEIK
0.5 fold | H183/L072 VL V27cF (antibody, name in Kabat numbering, V domains shown) VH: QVQLVESGGGLVQPGRSLRLSCAASGFTFSNAWMHWVRQAPGKGLEWVAQIKDKGNAYAAYYAPSVKGRFTISRDDSKNSIYLQMNSLKTEDTAVYYCHYVHYASASTVLPAFGVDAWGQGTTVTVSS VL: DIVMTQSPLSLPVTPGEPASISCQASQELFHMNRNTYLHWYQQKPGQAPRLLIYKVSNRFPGVPDRFSGSGSGTDFTLKISRVEAEDVGVYYCAQGTSVPFTFGQGTKLEIK
0.5 fold | H183/L072 VL T97N (antibody, name in Kabat numbering, V domains shown) VH: QVQLVESGGGLVQPGRSLRLSCAASGFTFSNAWMHWVRQAPGKGLEWVAQIKDKGNAYAAYYAPSVKGRFTISRDDSKNSIYLQMNSLKTEDTAVYYCHYVHYASASTVLPAFGVDAWGQGTTVTVSS VL: DIVMTQSPLSLPVTPGEPASISCQASQELVHMNRNTYLHWYQQKPGQAPRLLIYKVSNRFPGVPDRFSGSGSGTDFTLKISRVEAEDVGVYYCAQGTSVPFNFGQGTKLEIK
0.7 fold | H183/L072 VL T97M (antibody, name in Kabat numbering, V domains shown) VH: QVQLVESGGGLVQPGRSLRLSCAASGFTFSNAWMHWVRQAPGKGLEWVAQIKDKGNAYAAYYAPSVKGRFTISRDDSKNSIYLQMNSLKTEDTAVYYCHYVHYASASTVLPAFGVDAWGQGTTVTVSS VL: DIVMTQSPLSLPVTPGEPASISCQASQELVHMNRNTYLHWYQQKPGQAPRLLIYKVSNRFPGVPDRFSGSGSGTDFTLKISRVEAEDVGVYYCAQGTSVPFMFGQGTKLEIK
1.2 fold | H183/L072 VL V27cR (antibody, name in Kabat numbering, V domains shown) VH: QVQLVESGGGLVQPGRSLRLSCAASGFTFSNAWMHWVRQAPGKGLEWVAQIKDKGNAYAAYYAPSVKGRFTISRDDSKNSIYLQMNSLKTEDTAVYYCHYVHYASASTVLPAFGVDAWGQGTTVTVSS VL: DIVMTQSPLSLPVTPGEPASISCQASQELRHMNRNTYLHWYQQKPGQAPRLLIYKVSNRFPGVPDRFSGSGSGTDFTLKISRVEAEDVGVYYCAQGTSVPFTFGQGTKLEIK
0.4 fold | H183/L072 VL V27cA (antibody, name in Kabat numbering, V domains shown) VH: QVQLVESGGGLVQPGRSLRLSCAASGFTFSNAWMHWVRQAPGKGLEWVAQIKDKGNAYAAYYAPSVKGRFTISRDDSKNSIYLQMNSLKTEDTAVYYCHYVHYASASTVLPAFGVDAWGQGTTVTVSS VL: DIVMTQSPLSLPVTPGEPASISCQASQELAHMNRNTYLHWYQQKPGQAPRLLIYKVSNRFPGVPDRFSGSGSGTDFTLKISRVEAEDVGVYYCAQGTSVPFTFGQGTKLEIK
0.1 fold | H183/L072 VL V27cD (antibody, name in Kabat numbering, V domains shown) VH: QVQLVESGGGLVQPGRSLRLSCAASGFTFSNAWMHWVRQAPGKGLEWVAQIKDKGNAYAAYYAPSVKGRFTISRDDSKNSIYLQMNSLKTEDTAVYYCHYVHYASASTVLPAFGVDAWGQGTTVTVSS VL: DIVMTQSPLSLPVTPGEPASISCQASQELDHMNRNTYLHWYQQKPGQAPRLLIYKVSNRFPGVPDRFSGSGSGTDFTLKISRVEAEDVGVYYCAQGTSVPFTFGQGTKLEIK
0.4 fold | H183/L072 VL T97L (antibody, name in Kabat numbering, V domains shown) VH: QVQLVESGGGLVQPGRSLRLSCAASGFTFSNAWMHWVRQAPGKGLEWVAQIKDKGNAYAAYYAPSVKGRFTISRDDSKNSIYLQMNSLKTEDTAVYYCHYVHYASASTVLPAFGVDAWGQGTTVTVSS VL: DIVMTQSPLSLPVTPGEPASISCQASQELVHMNRNTYLHWYQQKPGQAPRLLIYKVSNRFPGVPDRFSGSGSGTDFTLKISRVEAEDVGVYYCAQGTSVPFLFGQGTKLEIK
0.3 fold | H183/L072 VL V27cN (antibody, name in Kabat numbering, V domains shown) VH: QVQLVESGGGLVQPGRSLRLSCAASGFTFSNAWMHWVRQAPGKGLEWVAQIKDKGNAYAAYYAPSVKGRFTISRDDSKNSIYLQMNSLKTEDTAVYYCHYVHYASASTVLPAFGVDAWGQGTTVTVSS VL: DIVMTQSPLSLPVTPGEPASISCQASQELNHMNRNTYLHWYQQKPGQAPRLLIYKVSNRFPGVPDRFSGSGSGTDFTLKISRVEAEDVGVYYCAQGTSVPFTFGQGTKLEIK
1 fold | H183/L072 VL V27cQ (antibody, name in Kabat numbering, V domains shown) VH: QVQLVESGGGLVQPGRSLRLSCAASGFTFSNAWMHWVRQAPGKGLEWVAQIKDKGNAYAAYYAPSVKGRFTISRDDSKNSIYLQMNSLKTEDTAVYYCHYVHYASASTVLPAFGVDAWGQGTTVTVSS VL: DIVMTQSPLSLPVTPGEPASISCQASQELQHMNRNTYLHWYQQKPGQAPRLLIYKVSNRFPGVPDRFSGSGSGTDFTLKISRVEAEDVGVYYCAQGTSVPFTFGQGTKLEIK
1.1 fold | H183/L072 VL V27cK (antibody, name in Kabat numbering, V domains shown) VH: QVQLVESGGGLVQPGRSLRLSCAASGFTFSNAWMHWVRQAPGKGLEWVAQIKDKGNAYAAYYAPSVKGRFTISRDDSKNSIYLQMNSLKTEDTAVYYCHYVHYASASTVLPAFGVDAWGQGTTVTVSS VL: DIVMTQSPLSLPVTPGEPASISCQASQELKHMNRNTYLHWYQQKPGQAPRLLIYKVSNRFPGVPDRFSGSGSGTDFTLKISRVEAEDVGVYYCAQGTSVPFTFGQGTKLEIK
0.3 fold | H183/L072 VL V27cH (antibody, name in Kabat numbering, V domains shown) VH: QVQLVESGGGLVQPGRSLRLSCAASGFTFSNAWMHWVRQAPGKGLEWVAQIKDKGNAYAAYYAPSVKGRFTISRDDSKNSIYLQMNSLKTEDTAVYYCHYVHYASASTVLPAFGVDAWGQGTTVTVSS VL: DIVMTQSPLSLPVTPGEPASISCQASQELHHMNRNTYLHWYQQKPGQAPRLLIYKVSNRFPGVPDRFSGSGSGTDFTLKISRVEAEDVGVYYCAQGTSVPFTFGQGTKLEIK
0.4 fold | H183/L072 VL T97R (antibody, name in Kabat numbering, V domains shown) VH: QVQLVESGGGLVQPGRSLRLSCAASGFTFSNAWMHWVRQAPGKGLEWVAQIKDKGNAYAAYYAPSVKGRFTISRDDSKNSIYLQMNSLKTEDTAVYYCHYVHYASASTVLPAFGVDAWGQGTTVTVSS VL: DIVMTQSPLSLPVTPGEPASISCQASQELVHMNRNTYLHWYQQKPGQAPRLLIYKVSNRFPGVPDRFSGSGSGTDFTLKISRVEAEDVGVYYCAQGTSVPFRFGQGTKLEIK
1 fold | H183/L072 VL V27cI (antibody, name in Kabat numbering, V domains shown) VH: QVQLVESGGGLVQPGRSLRLSCAASGFTFSNAWMHWVRQAPGKGLEWVAQIKDKGNAYAAYYAPSVKGRFTISRDDSKNSIYLQMNSLKTEDTAVYYCHYVHYASASTVLPAFGVDAWGQGTTVTVSS VL: DIVMTQSPLSLPVTPGEPASISCQASQELIHMNRNTYLHWYQQKPGQAPRLLIYKVSNRFPGVPDRFSGSGSGTDFTLKISRVEAEDVGVYYCAQGTSVPFTFGQGTKLEIK
0.7 fold | H183/L072 VL V27cE (antibody, name in Kabat numbering, V domains shown) VH: QVQLVESGGGLVQPGRSLRLSCAASGFTFSNAWMHWVRQAPGKGLEWVAQIKDKGNAYAAYYAPSVKGRFTISRDDSKNSIYLQMNSLKTEDTAVYYCHYVHYASASTVLPAFGVDAWGQGTTVTVSS VL: DIVMTQSPLSLPVTPGEPASISCQASQELEHMNRNTYLHWYQQKPGQAPRLLIYKVSNRFPGVPDRFSGSGSGTDFTLKISRVEAEDVGVYYCAQGTSVPFTFGQGTKLEIK
0.5 fold | H183/L072 VL T97Q (antibody, name in Kabat numbering, V domains shown) VH: QVQLVESGGGLVQPGRSLRLSCAASGFTFSNAWMHWVRQAPGKGLEWVAQIKDKGNAYAAYYAPSVKGRFTISRDDSKNSIYLQMNSLKTEDTAVYYCHYVHYASASTVLPAFGVDAWGQGTTVTVSS VL: DIVMTQSPLSLPVTPGEPASISCQASQELVHMNRNTYLHWYQQKPGQAPRLLIYKVSNRFPGVPDRFSGSGSGTDFTLKISRVEAEDVGVYYCAQGTSVPFQFGQGTKLEIK
1.1 fold | H183/L072 VL V27cM (antibody, name in Kabat numbering, V domains shown) VH: QVQLVESGGGLVQPGRSLRLSCAASGFTFSNAWMHWVRQAPGKGLEWVAQIKDKGNAYAAYYAPSVKGRFTISRDDSKNSIYLQMNSLKTEDTAVYYCHYVHYASASTVLPAFGVDAWGQGTTVTVSS VL: DIVMTQSPLSLPVTPGEPASISCQASQELMHMNRNTYLHWYQQKPGQAPRLLIYKVSNRFPGVPDRFSGSGSGTDFTLKISRVEAEDVGVYYCAQGTSVPFTFGQGTKLEIK
1.1 fold | H183/L072 VL T97S (antibody, name in Kabat numbering, V domains shown) VH: QVQLVESGGGLVQPGRSLRLSCAASGFTFSNAWMHWVRQAPGKGLEWVAQIKDKGNAYAAYYAPSVKGRFTISRDDSKNSIYLQMNSLKTEDTAVYYCHYVHYASASTVLPAFGVDAWGQGTTVTVSS VL: DIVMTQSPLSLPVTPGEPASISCQASQELVHMNRNTYLHWYQQKPGQAPRLLIYKVSNRFPGVPDRFSGSGSGTDFTLKISRVEAEDVGVYYCAQGTSVPFSFGQGTKLEIK
